Reference: the supplement of paper PMC10724198
± gives the standard deviation of the averaged measurements.

Assays:
Saccharomyces cerevisiae [1] = experiment: protein stability index of tFT-peptide fusion (C-terminal peptide) (PSI (0-1 scale)); higher = more stable (slower turnover)
Procedure: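 MPS profiling in S. cerevisiae of the tFT-X12 degron library: putative degron peptides plus stable controls, 12 aa, fused to the C-terminus of a sfGFP-mCherry timer. Cells are FACS-sorted into 8 mCherry/sfGFP bins and deep-sequenced. PSI runs from 0 (unstable) to 1 (stable). Backgrounds are wild type, das1Δ and doa10Δ at 30 °C, and wild type, das1Δ, cdc34-1 and cdc53-1 at 37 °C; 2-3 technical replicates each.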

Saccharomyces cerevisiae [2] = experiment: as above; conditions: genetic background: wild type; temperature: 30 C
[3] = genetic background: cdc34-1, temperature: 37 C
[4] = genetic background: cdc53-1, temperature: 37 C
[5] = genetic background: das1 deletion, temperature: 30 C
[6] = genetic background: das1 deletion, temperature: 37 C
[7] = genetic background: doa10 deletion, temperature: 30 C
[8] = genetic background: wild type, temperature: 30 C
[9] = genetic background: wild type, temperature: 37 C
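Further: PSI is a weighted mean of sequencing reads over stability bins, variants kept only with over 10 reads, mCherry proximal and sfGFP distal, peptide attached via GGGS linker.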

| Sequence | protein stability index (Saccharomyces cerevisiae [1]; [3]) | protein stability index (Saccharomyces cerevisiae [1]; [4]) | protein stability index (Saccharomyces cerevisiae [1]; [5]) | protein stability index (Saccharomyces cerevisiae [1]; [6]) | protein stability index (Saccharomyces cerevisiae [1]; [7]) | protein stability index (Saccharomyces cerevisiae [1]; [8]) | protein stability index (Saccharomyces cerevisiae [1]; [9]) | protein stability index (Saccharomyces cerevisiae [2]) |
| --- | --- | --- | --- | --- | --- | --- | --- | --- |
| YPSASLLPLFSC | 0.594 ± 0.06 | 0.733 ± 0.017 | 0.622 ± 0.014 | 0.748 ± 0.015 | 0.126 ± 0.018 | 0.136 ± 0.017 | 0.184 ± 0.016 | 0.171 ± 0.004 |
| YQFDGLVFLRLS | 0.716 ± 0.02 | 0.724 ± 0.0064 | 0.645 ± 0.014 | 0.774 ± 0.018 | 0.3501 ± 0.0014 | 0.4 ± 0.017 | 0.6515 ± 0.00071 | 0.4808 ± 0.0011 |
| ERFILVGMFGSW | 0.702 ± 0.036 | 0.717 ± 0.015 | 0.519 ± 0.017 | 0.708 ± 0.0095 | 0.532 ± 0.026 | 0.529 ± 0.027 | 0.701 ± 0.022 | 0.532 ± 0.048 |
| VYFASCVVLLMV | 0.159 ± 0.028 | 0.188 ± 0.025 | 0.194 ± 0.029 | 0.3194 ± 0.0019 | 0.159 ± 0.0018 | 0.174 ± 0.017 | 0.251 ± 0.015 | 0.264 ± 0.029 |
| RVEPYDLARRVL | 0.725 ± 0.038 | 0.768 ± 0.028 | 0.665 ± 0.027 | 0.759 ± 0.02 | 0.652 ± 0.025 | 0.628 ± 0.015 | 0.71 ± 0.018 | 0.726 ± 0.0081 |
| KKKQAILRTLKI | 0.681 ± 0.079 | 0.74 ± 0.026 | 0.663 ± 0.049 | 0.697 ± 0.037 | 0.177 ± 0.045 | 0.197 ± 0.0073 | 0.417 ± 0.013 | 0.406 ± 0.0082 |
| LIPFPGFFILLT | 0.244 ± 0.021 | 0.13 ± 0.0096 | 0.277 ± 0.021 | 0.37 ± 0.046 | 0.49 ± 0.023 | 0.28 ± 0.05 | 0.315 ± 0.054 | 0.436 ± 0.0094 |
| DRLRSGLSLLLA | 0.64 ± 0.014 | 0.6817 ± 0.0049 | 0.556 ± 0.018 | 0.669 ± 0.0078 | 0.365 ± 0.015 | 0.411 ± 0.02 | 0.583 ± 0.0065 | 0.4925 ± 0.0035 |
| LLLSLLVLRFFL | 0.37 ± 0.043 | 0.309 ± 0.007 | 0.356 ± 0.047 | 0.536 ± 0.033 | 0.5037 ± 0.0014 | 0.357 ± 0.028 | 0.501 ± 0.019 | 0.423 ± 0.027 |
| CLAGALSWLRRG | 0.704 ± 0.034 | 0.7646 ± 0.006 | 0.662 ± 0.015 | 0.745 ± 0.022 | 0.637 ± 0.013 | 0.646 ± 0.019 | 0.703 ± 0.022 | 0.732 ± 0.018 |
| GGRFVWIVRAVG | 0.6323 ± 0.0024 | 0.727 ± 0.017 | 0.611 ± 0.021 | 0.73 ± 0.022 | 0.233 ± 0.004 | 0.272 ± 0.037 | 0.568 ± 0.057 | 0.471 ± 0.014 |
| LCLLIHFWISHL | 0.302 ± 0.0069 | 0.44 ± 0.009 | 0.295 ± 0.028 | 0.43 ± 0.019 | 0.167 ± 0.0048 | 0.173 ± 0.013 | 0.2932 ± 0.0011 | 0.244 ± 0.023 |
| VRINLLFVWFSR | 0.407 ± 0.0067 | 0.472 ± 0.028 | 0.331 ± 0.044 | 0.491 ± 0.012 | 0.359 ± 0.016 | 0.334 ± 0.04 | 0.464 ± 0.033 | 0.396 ± 0.026 |
| VPPLPPPGPPTF | 0.705 ± 0.0084 | 0.7583 ± 0.0011 | 0.667 ± 0.012 | 0.733 ± 0.014 | 0.683 ± 0.029 | 0.6765 ± 0.0056 | 0.708 ± 0.011 | 0.699 ± 0.015 |
| FLLELRFTCSYS | 0.383 ± 0.026 | 0.454 ± 0.021 | 0.407 ± 0.014 | 0.4415 ± 0.00066 | 0.403 ± 0.013 | 0.406 ± 0.023 | 0.4158 ± 0.0028 | 0.431 ± 0.013 |
| KKTKKTMIIKTT | 0.693 ± 0.066 | 0.706 ± 0.027 | 0.6314 ± 0.005 | 0.745 ± 0.0037 | 0.33 ± 0.021 | 0.369 ± 0.04 | 0.6051 ± 0.0008 | 0.463 ± 0.0091 |
| VLVWLRLRVGLR | 0.212 ± 0.025 | 0.322 ± 0.016 | 0.218 ± 0.045 | 0.381 ± 0.0098 | 0.199 ± 0.0058 | 0.213 ± 0.021 | 0.3468 ± 0.0019 | 0.3002 ± 0.00052 |
| RLVVSRNFYRLC | 0.622 ± 0.054 | 0.723 ± 0.017 | 0.6318 ± 0.006 | 0.7235 ± 0.0012 | 0.125 ± 0.0022 | 0.135 ± 0.014 | 0.342 ± 0.0091 | 0.304 ± 0.1 |
| TLCHLTLICVRE | 0.221 ± 0.0099 | 0.253 ± 0.018 | 0.226 ± 0.019 | 0.358 ± 0.011 | 0.1767 ± 0.00029 | 0.21 ± 0.018 | 0.336 ± 0.012 | 0.382 ± 0.027 |
| RLWLPLSLVLWV | 0.376 ± 0.05 | 0.3824 ± 0.0031 | 0.37 ± 0.072 | 0.505 ± 0.012 | 0.414 ± 0.03 | 0.341 ± 0.05 | 0.421 ± 0.041 | 0.427 ± 0.029 |
